Reference: the supplement of paper PMC10567573
± gives the standard deviation.

Test: protein stability index of a GFP-peptide fusion (GPS, HEK-293T) (PSI 1-6); higher = more stable
[1] = treatment: DMSO, c terminus: a fixed tail appended
[2] = treatment: MLN4924 1 uM, 8 h, c terminus: a fixed tail appended
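Note: 24-mer peptide tiles fused after GFP, lentivirally expressed, FACS-sorted into six equal bins by GFP/DsRed ratio, decoded by Illumina sequencing, PSI is the read-weighted mean bin number.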

Sequence	protein stability index [1]	protein stability index [2]	protein stability index (treatment: DMSO, c terminus: native)	protein stability index (treatment: MLN4924 1 uM, 8 h, c terminus: native)
VVCGMFGFPGERTYNTKVYKMFAS [LOXL2]	2.66 ± 1.1	2.63 ± 0.2		
VVLKLFLSFSGSDVQNKLKESAQC [SNX8]	2.8 ± 0.76	2.92 ± 0.52		
VVTLWYRAPEVLLQSTYATPVDMW [CDK4]	3.15 ± 0.61	3.07 ± 0.68		
WEAKQEKIKSEEIEITFSYWDGSG [FAM50A]	2.59 ± 0.3	2.6 ± 0.35		
WGEMTLSLFSLLIAAAVYIMDTVG [SLC19A2]	2.51 ± 0.44	2.46 ± 0.31		
WGHCEIRMRYLNGLDPEPLPLMDL [SPSB1]	2.42 ± 0.59	2.36 ± 0.59		
WVCFIYTIMSLASLLFVVMFIPET [SLC2A12]	3.06 ± 0.83	2.74 ± 0.52		
WVLSIDGENAGSLTHIEAQNKIRA [PDLIM7]	3.02 ± 0.33	3.28 ± 0.29		
WVNDPQRMDKRTLALLVLAHSSDV [GOLPH3L]	2.19 ± 0.3	2.18 ± 0.2		
WVSTQLQATCNVHKSAFNDWFSGH [FADS1]	2.75 ± 0.82	2.43 ± 0.54		
WWALSTCGYFQVVNYTQGLWEKVM [SLC19A2]	2.75 ± 1.3	2.45 ± 0.73		
YDIAKHLTYENVERWLKELRDHAD [RAB11A]	2.66 ± 0.36	2.77 ± 0.23		
YEHYERVENGDFNWIVPGKFLAFS [CDC14A]	2.34 ± 0.16	2.26 ± 0.29		
YESTLFEDQVPALEAPEDIGSTSE [MIA2]	5.55 ± 0.23	5.51 ± 0.33		
YGETDFHKQDGKAGLFSQEQYERN [TMEM40]	4.18 ± 0.16	4.72 ± 0.56		
YGRDSFVRLLLEFKAEVDPLSDKG [ASB7]	2.65 ± 0.74	2.37 ± 0.28		
YKGPLLEEQALTKAAEGGLSSPEF [FAM98B]	4.41 ± 0.33	4.55 ± 0.27		
YKYGAIRDIDLKNRRGGPPFAFVE [SRSF1]	2.38 ± 0.31	2.62 ± 0.36		
YLIMLPFRFTYYTILDIFRFALRF [FAF2]	3.33 ± 0.26	3.25 ± 0.18		

Sequence	protein stability index [1]	protein stability index [2]	protein stability index (treatment: DMSO, c terminus: native)	protein stability index (treatment: MLN4924 1 uM, 8 h, c terminus: native)
YLNEYEAEKIEYNESMKAYHNSPA [SMARCE1]	3.95 ± 0.4	3.98 ± 0.31		
YLRFIVSRMKERAIDLNKKGKDNK [ZMYND11]	2.63 ± 0.7	2.05 ± 0.3		
YLYGILEERKNEMTQVITRTQEEK [TRIM55]	3.6 ± 0.15	3.55 ± 0.31		
YNHQHKYFFLIGPPALLPLYFQWY [FADS1]	3.18 ± 0.66	2.38 ± 0.32		
YNISEFTRRHPGGSRVISHYAGQD [FADS1]	3.54 ± 0.15	3.42 ± 0.26		
YQAFRECTLETTVHASGWNKILVP [BCL2L13]	1.93 ± 0.33	2.32 ± 0.22		
YQGPGTRRLQEVLGVQTGGPGGRR [DYRK1B]	3.59 ± 0.39	3.94 ± 0.36		
YRAALRSCSLVLEHQPDNIKALFR [FKBP8]	2.17 ± 0.25	2.27 ± 0.037		
YRDYGHSRRDESYSRGYRNRRSSR [RBMY1A1]	4.75 ± 0.14	4.79 ± 0.12		
YRGAVYADSGNFKRCINLWKYALD [FEM1C]	2.32 ± 0.08	2.33 ± 0.18		
YRQSSFPHCSDLMPSGSEEKILRE [KCNA4]	4.25 ± 0.29	4.26 ± 0.14		
YRSLGSVQAPSYGARPVSSAASVY [KRT18]	3.33 ± 0.23	3.17 ± 0.097		
YSAYIRRCACAASSDESPGSKCSP [TTC32]	2.25 ± 0.23	2.85 ± 0.16		
YSFRNPDVQSAIWRMLTGRRSLA [OR3A1]			2.44 ± 0.51	2.65 ± 0.36
YSGQITLLKLEQNTCSVITTLKGH [WDFY1]	2.82 ± 0.67	2.38 ± 0.36		
YSNLLVRDFRPTDQEEIKTLERYM [TENT5C]	3.08 ± 0.22	3.35 ± 0.36		
YSRYLNEKAFSYRQMAFDFARVKK [SNAP91]	2.28 ± 0.59	2.7 ± 0.16		
YTEGISQRMRVPEKLKVAPPNADL [MFF]	3.28 ± 0.4	3.75 ± 0.32		
YVHDPECVATTGDITVSVSTSFLP [FBXO3]	2.46 ± 0.26	2.95 ± 0.15		
